The supplement of paper PMC7125110
± gives the standard error. Variants at the floor of the assay were thinned out.

B1: glmS ribozyme (parent)
chain: AUAAAAGCGCCAGAACUACAGAAAUGUAGUUGACGAGGAGGAGGUUUAUCGAAUUUUCGGCGGAUGCCUCCAAA

Columns and labels:
Settings in all cases: with glucosamine-6-phosphate
glucosamine-6-phosphate [1] = variants of: B1; experiment: self-cleavage kobs at 640 uM GlcN6P; higher = faster cleavage; RNA array
Summary of the method: (§1)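 Weighted Michaelis–Menten fits across concentrations supplied kcat and KM, based on kobs from one- or two-exponential decay fits to normalised per-tile medians. The data came from barcoded ribozyme variants transcribed in situ by E. coli RNA polymerase on sequenced MiSeq chips and tracked at 37 °C by a hybridised Cy3 probe. Glucosamine-6-phosphate (40 μM to 10 mM) in HEPES/KCl/Mg(OAc)2 buffer was flowed in.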

glucosamine-6-phosphate [2] = variants of: B1; experiment: self-cleavage kobs at 2500 uM GlcN6P; higher = faster cleavage; RNA array
Summary of the method: as §1

glucosamine-6-phosphate [3] = variants of: B1; experiment: self-cleavage kobs at 10000 uM GlcN6P; higher = faster cleavage; RNA array
Summary of the method: as §1

Row | Variant | self-cleavage kobs at 640 uM GlcN6P (glucosamine-6-phosphate [1]) [s⁻¹] | self-cleavage kobs at 2500 uM GlcN6P (glucosamine-6-phosphate [2]) [s⁻¹] | self-cleavage kobs at 10000 uM GlcN6P (glucosamine-6-phosphate [3]) [s⁻¹]
1 | C10A U49C | < 1e-05 | – | –
2 | C10G C11U U45G A48U C58U | < 1e-05 | < 1e-05 | –
3 | G9U G44A A64C | < 1e-05 | – | –
4 | C10A G38U A39G | < 1e-05 | < 1e-05 | –
5 | A6U G35A G43U | < 1e-05 | < 1e-05 | –
6 | C10A A36U C68A | 0.000222 ± 9e-05 | – | –
7 | G7C A42U A53U C67G | < 1e-05 | – | –
8 | G7A A39C | < 1e-05 | < 1e-05 | –
9 | G7A A48C U69G | < 1e-05 | < 1e-05 | –
10 | C8G G13U A33U G38A | < 1e-05 | – | –
11 | C8A C11U G37C G62A | < 1e-05 | < 1e-05 | –
12 | C10G G66U | < 1e-05 | < 1e-05 | < 1e-05
13 | G9U A42G U45A C58G | < 1e-05 | < 1e-05 | –
14 | C8G C11U A36U | < 1e-05 | < 1e-05 | –
15 | G7A C34U G35U G37A G40A | < 1e-05 | < 1e-05 | –
16 | C8U G44U G60U | < 1e-05 | – | –
17 | G9A A36U U56G | < 1e-05 | – | –
18 | C8U A39U G40C U56G U57G | < 1e-05 | – | –
19 | G7U C58G | < 1e-05 | – | –
20 | G9A C11U G29C G35U G59C | < 1e-05 | < 1e-05 | –
21 | G9U U49A C71A | < 1e-05 | – | –

Row | Variant | self-cleavage kobs at 640 uM GlcN6P (glucosamine-6-phosphate [1]) [s⁻¹] | self-cleavage kobs at 2500 uM GlcN6P (glucosamine-6-phosphate [2]) [s⁻¹] | self-cleavage kobs at 10000 uM GlcN6P (glucosamine-6-phosphate [3]) [s⁻¹]
22 | G7A A39G U49C U69A | < 1e-05 | < 1e-05 | < 1e-05
23 | G7U G38U G40U | < 1e-05 | – | –
24 | A6U C16U U47A | 6.84e-05 ± 2.1e-05 | 0.000103 ± 3.5e-05 | –
25 | C10G C61G A64U | < 1e-05 | < 1e-05 | –
26 | G7A C10U C16U U65C | < 1e-05 | – | –
27 | G9C U69G | < 1e-05 | < 1e-05 | < 1e-05
28 | G7U A64U | < 1e-05 | – | < 1e-05
29 | C8G C50G C61U A64U | 0.00078 ± 0.00019 | 0.00023 ± 6.3e-05 | –
30 | C8G G13C A52U A53U C71U | < 1e-05 | – | < 1e-05
31 | C8G A64C C68G | < 1e-05 | < 1e-05 | –
32 | C8G G9U A52U | < 1e-05 | < 1e-05 | –
33 | G9A C10U C58U | < 1e-05 | – | –
34 | C8G A12U C70U | < 1e-05 | < 1e-05 | –
35 | G7A G29U C34U | < 1e-05 | – | –
36 | A6U G7A G59A | < 1e-05 | – | –
37 | C8G A12U G43A C67A | < 1e-05 | < 1e-05 | –
38 | G7U C11G A64U | < 1e-05 | < 1e-05 | < 1e-05
39 | C8G C50U A53U U55G | < 1e-05 | – | –
40 | G9U G38U C61U | < 1e-05 | – | –
41 | G7U G38C U45C C70G | < 1e-05 | – | –
42 | C10G G38A U47C A52C | < 1e-05 | – | –

Row | Variant | self-cleavage kobs at 640 uM GlcN6P (glucosamine-6-phosphate [1]) [s⁻¹] | self-cleavage kobs at 2500 uM GlcN6P (glucosamine-6-phosphate [2]) [s⁻¹] | self-cleavage kobs at 10000 uM GlcN6P (glucosamine-6-phosphate [3]) [s⁻¹]
43 | C8A A15G A36C | < 1e-05 | – | –
44 | G7A A12C U49C G62A | < 1e-05 | < 1e-05 | –
45 | C8A U47C G51A | < 1e-05 | < 1e-05 | –
46 | A6U G38C C61U | < 1e-05 | – | –
47 | G7U G35C A39U U65C | < 1e-05 | – | –
48 | C10A G35A A42U U57G | < 1e-05 | – | –
49 | G9A C10U A42G A53U | < 1e-05 | < 1e-05 | –
50 | G9U G63A | < 1e-05 | < 1e-05 | < 1e-05
51 | C8G G35U G37A A48U C67U | < 1e-05 | < 1e-05 | –
52 | A6U C11U U31C G40A G44A U55A | < 1e-05 | – | –
53 | G9U U65C | < 1e-05 | – | < 1e-05
54 | C8G G35A C70G | < 1e-05 | – | –
55 | C8U A33G G38A G59A C70G | 5.19e-05 ± 1.9e-05 | – | –
56 | G7A C8U U31C A52C | < 1e-05 | < 1e-05 | –
57 | G9U U30C C34U C58U G66U C70G | < 1e-05 | – | < 1e-05
58 | G9C A12C C58U | < 1e-05 | < 1e-05 | –
59 | G9U C10A | < 1e-05 | < 1e-05 | –
60 | G9U A12C A33G | < 1e-05 | < 1e-05 | –
61 | C8U G9U G13U G41U A42U C50G C68U | < 1e-05 | < 1e-05 | –
62 | G7A C8U G13U A15C A39C U55G U57A | < 1e-05 | – | –
63 | C8G C11A A39C | < 1e-05 | – | –
